Measurements taken from paper PMC6611850.

Assays:
[1] = target: T. thermophilus Csm2 (T. thermophilus); experiment: cryo-EM structure; TthCsm bound to a 50-nt complementary target RNA, with noncomplementary ssDNA and 1 mM EDTA; 3.8 Å
[2] = target: T. thermophilus Csm3 (T. thermophilus); experiment: as above

Row | stoichiometry N [1] | stoichiometry N [2] | Substance
1 | 4 |  | T. thermophilus Csm2 (natural protein)
2 |  | 6 | T. thermophilus Csm3 (natural protein)
